21 molecules from patent US9012420B2, “Aptamer for chymase, and use thereof” (Ribomic Inc., priority 2009, dated 2015) can be followed below.

Oligonucleotides are written 5' to 3', each unit as a sugar letter and its base; * is a phosphorothioate linkage, no mark a phosphodiester; rarer units and linkages stand in square brackets, end groups in braces. Plain capitals give the bases only. r = 2'-OH (RNA); f = 2'-fluoro

T1: chymase (recombinant) (UniProt P23946 P23946:22-247)
T1 sequence: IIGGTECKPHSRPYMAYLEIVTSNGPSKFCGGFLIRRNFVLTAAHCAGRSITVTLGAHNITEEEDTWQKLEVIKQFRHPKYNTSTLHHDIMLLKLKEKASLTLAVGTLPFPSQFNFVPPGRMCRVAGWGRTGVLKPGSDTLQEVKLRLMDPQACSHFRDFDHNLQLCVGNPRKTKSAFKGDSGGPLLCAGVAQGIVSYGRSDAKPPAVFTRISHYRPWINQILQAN

T2: chymase (Homo sapiens, UniProt P23946)
T2 sequence (P23946 22-247): T1 sequence

B1: SEQ 34 (ssRNA)
RNA: GGGACGGUAGGAAUUCUGCCGCAACCCAAUGAAAACGAAGAUAGAGAUAAAUCGAACAUAGAAGAGCGGCCGC
modifications: 2'-F pyrimidines
B2: SEQ 32 (ssRNA)
RNA: GGGACGGUAGGAAUUCGUCCUCAUGUCUAUUUUGCAGAUAGACUUAAAGCAAACAUAGAAGAGCGGCCGC
modifications: 2'-F pyrimidines
B3: SEQ 33 (ssRNA)
RNA: GGGACGGUAGGAAUUCCUGUCUUUUCCCACGCAACAAAUUACAGAGCUUUGCAAAACAUAGAAGAGCGGCCGC
modifications: 2'-F pyrimidines
B4: SEQ 31 (ssRNA)
RNA: GGGACGGUAGGAAUUCGUCCCUCAUGUCUAUUUUGCAGAUAGACUUAAAGCAAACAUAGAAGAGCGGCCGC
modifications: 2'-F pyrimidines
B5: SEQ 22 (ssRNA)
RNA: GGGACGGUAGGAAUUCCCGACACAAAAUGUGUGAUUAAUUCCGAACAACAAAGUAACAUAGAAGAGCGGCCGC
modifications: 2'-F pyrimidines
B6: SEQ 28 (ssRNA)
RNA: GGGACGGUAGGAAUUCAAUUUCUUUCUAUUCUCACCUGAGUAUAUCAGGCACAGUACAUAGAAGAGCGGCCGC
modifications: 2'-F pyrimidines
B7: SEQ 20 (ssRNA)
RNA: GGGACGGUAGGAAUUCAAAAUCAGCUGAUUUGUAAUUUUUUUACACAGGCAAAACACAUAGAAGAGCGGCCGC
modifications: 2'-F pyrimidines
B8: GGGACGGUAGGAAUUCGUCCUCAUGUCUAUUUUGCAGAUAGACUUAAAGCAAACAUAGAAGAGCGGCCGC (nucleic acid)
chain: rGrGrGrAfCrGrGfUrArGrGrArAfUfUfCrGfUfCfCfUfCrAfUrGfUfCfUrAfUfUfUfUrGfCrArGrAfUrArGrAfCfUfUrArArArGfCrArArAfCrAfUrArGrArArGrArGfCrGrGfCfCrGfC
B9: GGGACGGUAGGAAUUCGUCCCUCUUGUCUAUUUUGCAGAUAGACUUAAAGCAAACAUAGAAGAGCGGCCGC (nucleic acid)
chain: rGrGrGrAfCrGrGfUrArGrGrArAfUfUfCrGfUfCfCfCfUfCfUfUrGfUfCfUrAfUfUfUfUrGfCrArGrAfUrArGrAfCfUfUrArArArGfCrArArAfCrAfUrArGrArArGrArGfCrGrGfCfCrGfC
B10: GGGACGGUAGGAAUUCUGCCGCAACCCAAUGAAAACGAAGAUAGAGAUAAAUCGAACAUAGAAGAGCGGCCGC (nucleic acid)
chain: rGrGrGrAfCrGrGfUrArGrGrArAfUfUfCfUrGfCfCrGfCrArAfCfCfCrArAfUrGrArArArAfCrGrArArGrAfUrArGrArGrAfUrArArAfUfCrGrArAfCrAfUrArGrArArGrArGfCrGrGfCfCrGfC
modifications: aptamer
B11: GGGACGGUAGGAAUUCUCGUUCCUGACAGCAUUUGAGAUAGAUUUAAACAAACGCACAUAGAAGAGCGGCCGC (nucleic acid)
chain: GGGACGGUAGGAAUUCUCGUUCCUGACAGCAUUUGAGAUAGAUUUAAACAAACGCACAUAGAAGAGCGGCCGC
modifications: chemistry not given here
B12: GGGACGGUAGGAAUUCGUCCCUCAUGUCUAUUUUGCAGAUAGACUUAAAGCAAACAUAGAAGAGCGGCCGC (nucleic acid)
chain: rGrGrGrAfCrGrGfUrArGrGrArAfUfUfCrGfUfCfCfCfUfCrAfUrGfUfCfUrAfUfUfUfUrGfCrArGrAfUrArGrAfCfUfUrArArArGfCrArArAfCrAfUrArGrArArGrArGfCrGrGfCfCrGfC
B13: GGGACGGUAGGAAUUCAGCUGACUCCAAUGCACACGUAGAUAGAGUUAAAACGUUGCAUAGAAGAGCGGCCGC (nucleic acid)
chain: rGrGrGrAfCrGrGfUrArGrGrArAfUfUfCrArGfCfUrGrAfCfUfCfCrArAfUrGfCrAfCrAfCrGfUrArGrAfUrArGrArGfUfUrArArArAfCrGfUfUrGfCrAfUrArGrArArGrArGfCrGrGfCfCrGfC
modifications: aptamer
B14: GGGACGGUAGGAAUUCGUCGAUUCUACAGAUAGAGAUAAAGUAGAAUUUAACAAAACAUAGAAGAGCGGCCGC (nucleic acid)
chain: rGrGrGrAfCrGrGfUrArGrGrArAfUfUfCrGfUfCrGrAfUfUfCfUrAfCrArGrAfUrArGrArGrAfUrArArArGfUrArGrArAfUfUfUrArAfCrArArArAfCrAfUrArGrArArGrArGfCrGrGfCfCrGfC
modifications: aptamer

One series concerns the target T1, chymase (recombinant). The series is described as follows: inhibition; SPR +. The conditions noted are these: tags: SIGMA, expressed in yeast. The protocol: (§1) Here, Suc is a protecting succinyl group, and MCA is a 4-methylcoumaryl-7-amide group; upon cleavage of the C-terminal side of phenylalanine, AMC (7-amino-4-methyl-coumarine) is released. By detecting the fluorescence of this AMC, the enzyme activity of chymase can be determined. The assay was performed using a 96-well plate (F16 Black Maxisorp Fluoronunc, manufactured by Nunc), with a reaction mixture volume of 100 μL, in solution C as a buffer solution. First, each nucleic acid was serially diluted to 0.0027-2 μM concentrations in solution C to obtain 50 μL solutions. After 10 μL of the 1 mM substrate prepared in solution C was added thereto, the plate was set to the microplate reader SpectraMax190 (manufactured by Molecular Devices Corporation), and incubated at 37° C. for 5 minutes. Separately, 0.05 μg (or 0.005 μg) of chymase (recombinant, manufactured by SIGMA) was diluted in solution C to obtain a 40 μL chymase solution, and incubated at 37° C. for 5 minutes. The chymase solution was added to the mixture of the nucleic acid and substrate to initiate an enzyme reaction. The final chymase concentration in the reaction mixture was 16.7 nM (or 1.67 nM), the final substrate concentration being 100 μM. The plate containing the reaction mixture was set to the microplate reader SpectraMax190 (manufactured by Molecular Devices Corporation), and examined for time-dependent changes in the fluorescence intensity at 37° C. for 5 minutes (or 30 minutes) (excitation wavelength 380 nm, detection wavelength 460 nm). A linear approximation of the increase in the fluorescence of the AMC released from the substrate by chymase activity was generated, and its slope was taken as the initial velocity […]. For control, samples were treated and analyzed in the same manner in two cases: use of a 30N or 40N (a nucleotide of 30 or 40 consecutive bases represented by N; N is A, G, C or T) nucleic acid pool (negative control), and use of chymostatin, a known chymotrypsin-like serine protease inhibitor (positive control). Taking the initial reaction velocity without the nucleic acid and inhibitor (V_0) as a 100% enzyme activity, the inhibitory rate of each test substance was calculated using the following equation: […]
One may read the IC50 as the midpoint of a concentration-inhibition curve. As to B1, the concentration for half-maximal inhibition (IC50) was 137 nM.

On to B2, for which the IC50 stood at 235 nM.

B3: the IC50 turned out to be 145 nM.

Regarding B4, the IC50 is 155 nM.

Take B5: the IC50 worked out at 105 nM.

Consider B6, for which the IC50 was 45 nM.

B7: the IC50 was 282 nM.

Another series addresses T2, chymase. The series is described as follows: Surface plasmon resonance (Biacore T100), aptamer immobilized on SA chip, chymase injected as analyte. The series is classed as binding. The note with it: Table 1; about 1000 RU nucleic acid immobilized, chymase 0.2 μM analyte, running buffer solution A; compared with 40N. Here is the method: Binding strength is measured using Biacore T100 (manufactured by GE Healthcare). In a method of measurement, the aptamer is first immobilized onto a sensor chip, the amount immobilized being about 1000 RU. 20 μL of a chymase solution for analyte, prepared at 0.2 μM, is injected, and the binding of chymase to the aptamer is detected. An RNA comprising a random nucleotide sequence of 30 or 40 nucleotides is used as a negative control.
The binding activities against chymase of the nucleic acids shown by SEQ ID NO: 4-20 and 22-34 were determined by the surface plasmon resonance method using Biacore T100 (manufactured by GE Healthcare). The sensor chip used was the SA chip, which had streptavidin immobilized thereon. Bound thereto was about 1500 RU of a 16-nucleotide Poly dT with biotin bound to the 5′ end thereof. […] 20 μL of chymase for analyte, prepared at 0.2 μM, was injected. Solution A was used as a running buffer.
The binding activities against chymase of the nucleic acids shown by SEQ ID NO: 38-48 were evaluated by the surface plasmon resonance method. In the evaluations for SEQ ID NO: 38-48, measurements were taken in the same manner as Example 1. Solution C was used as a running buffer.
Background: In SPR one partner is held on a chip, and binding of the other changes the refractive index at the surface.
Regarding B8, the “Binding activity as determined using Biacore” value (shortened to “Binding activity as determined”) is “equivalent binding activity compared with 40N”.

Turning to B9, the “Binding activity as determined” value is on record as “higher binding activity than 40N”.

On to B10, for which the “Binding activity as determined” value is on record as “equivalent binding activity compared with 40N”.

Regarding B11, the “Binding activity as determined” value was “higher binding activity than 40N”.

In the case of B12, the “Binding activity as determined” value is recorded as “equivalent binding activity compared with 40N”.

As for B13, the “Binding activity as determined” value is listed as “higher binding activity than 40N”.

As for B14, the “Binding activity as determined” value is “higher binding activity than 40N”.

Another series deals with T1, chymase (recombinant). Nature of the series: inhibition; SPR ++. The note with it: tags: SIGMA, expressed in yeast. Here is the method:
as §1
Chymase inhibitory activity was determined in the same manner as Example 3.
For the molecule UAACUAUGGUUAGAUAGAGUUAAAAACCAUAGAAGA (ssRNA, 2'-F pyrimidines) [SEQ 54], the IC50 worked out at 51 nM.

CGUUACAUAAUGUAUAUACCAGGGUAACUAAACAUAGAAGAGCGG (ssRNA, 2'-F pyrimidines) [SEQ 51]: the IC50 came out at 24 nM.

Turning to CUAUGGUUAGAUAGAGUUAAAAACCAUAG (ssRNA, 2'-F pyrimidines) [SEQ 55], the IC50 turned out to be 55 nM.

Consider GGCAUUCUACAGAUAGAGAUAAAGUAGAAUUUAAC (ssRNA, 2'-F pyrimidines) [SEQ 50], for which the IC50 turned out to be 138 nM.

As for GCAUUUGAGAUAGAUUUAAACAAACGC (ssRNA, 2'-F pyrimidines) [SEQ 57], the IC50 is 99 nM.

Turning to GGUUCUACAGAUAGAGAUAAAGUAGAACC (ssRNA, 2'-F pyrimidines) [SEQ 49], the IC50 amounted to 117 nM.

On to GGGUAACUAUGGUUAGAUAGAGUUAAAAACCAUAGAAGACCC (ssRNA, 2'-F pyrimidines) [SEQ 53], for which the IC50 was 66 nM.
